# From the supplement of paper PMC12042874
# ± gives the uncertainty stated by the source.
# Assay: amyloid nucleation score (Sup35N fusion, yeast selection) (log enrichment); library NNK3; higher = more nucleation; inactive = no reads after selection
# In short: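 Sup35N fusions to peptides of 20 random codons were expressed in psi-negative yeast, induced 24 hours with 100 μM copper sulfate, and grown 7 days at 30°C on medium lacking adenine and uracil. Input and output plasmid inserts were sequenced by Illumina. The nucleation score is the DiMSum log enrichment of output over input reads, centred on the mode score of non-aggregating sequences. Sequences with under 100 input reads were excluded.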
row,Substance,amyloid nucleation score
1,TVKMRKFRRGTFRDMDIYWR,inactive
2,TVKVYTWNY,1.93 ± 0.09
3,TVLITIIFTSRGVAVRKS,-1.19 ± 1.9
4,TVLSIIVFSYLLVCYHLVSV,inactive
5,TVLSVGINDFPYRSAISCLR,inactive
6,TVLVTMFKIEEQLTF,inactive
7,TVNWLL,inactive
8,TVPVVREVLRLRVLRIFGVG,inactive
9,TVRKSRSRSTQDEAFNPGTH,0.111 ± 0.63
10,TVSICSGVSRVWKHLHYMMV,inactive
11,TVSLRCWARLSNTDFIRFNS,inactive
12,TVTCANSCLCRLSRMSCVVL,inactive
13,TVVKPNRLAYHSQLFCKAHT,inactive
14,TVYELYVDLAVRRSAFAFLP,0.744 ± 0.15
15,TWESGENLTLTWAAQMGRCG,inactive
16,TWFLTPLNTFIFLLVPLFGL,inactive
17,TWILSMWRSCIPNL,inactive
18,TWLIY,inactive
19,TWVCEG,inactive
20,TWVILCKNSWFMLI,inactive
21,TWVVLG,inactive
22,TYENDLC,inactive

row,Substance,amyloid nucleation score
1,TYGNLFNNCDKIYRRQNRSL,inactive
2,TYISF,inactive
3,TYKHNSTYIKPLTSFLQSGG,inactive
4,TYKRIPYELTRSGTKPLYTP,inactive
5,TYLLYCCVVVR,inactive
6,TYLRLTWIDCYSPCFKSNAI,2.43 ± 0.061
7,TYMTYERVYL,inactive
8,TYQST,inactive
9,TYSIISENIVVFFNRM,2.58 ± 0.059
10,TYSSGFAPGWN,inactive
11,TYSVGHR,inactive
12,TYTVYLRRYAYYECTFRQFL,inactive
13,TYVKYKRILQQGIYAVVMNV,inactive
14,VAFGWDLFFNVLNLHCNVSN,1.89 ± 0.069
15,VALDNCTFVLVAMQTDQD,0.817 ± 0.12
16,VAMRDERGLFNRLWLRVFV,inactive
17,VAQSFEIGYYSGLYIYYCSV,inactive
18,VAVDIRALFRGRWVMNLARR,-0.75 ± 1.5
19,VCCCHLCL,0.17 ± 0.56
20,VCLCNQVRLTM,inactive
21,VCLHFMGLRVAFLAGMFIII,inactive
22,VCNMRVYI,inactive

row,Substance,amyloid nucleation score
1,VCNMYFSFIRNLRGFNRNQC,2.06 ± 0.062
2,VCQGFSKFLRWSQVRFLSMA,-0.288 ± 1.4
3,VCSDGLNWGHGVRMLWY,inactive
4,VCSHGFCACCRNNKDETWCD,-0.331 ± 0.66
5,VCSVTFMLVLLCMRHCLITR,inactive
6,VCTTMCDTRWVTISYF,inactive
7,VCVTSSSMCNFDGLVVTRVV,inactive
8,VDAIASGVYWPPVVVYSWLF,inactive
9,VDEDQLRHMWVHSD,inactive
10,VDISFVSAWKDLLLGRLVCD,inactive
11,VDKDTE,inactive
12,VDKWSCVDNFFSY,inactive
13,VDMVGYRNLRCHSN,inactive
14,VDNSYQFSLKTDSNYNIERQ,inactive
15,VDQPQ,inactive
16,VDWNRTFEIKSVEGDVKGAL,inactive
17,VEAMQVWDSSFMSCTNLFTS,inactive
18,VECCNGLCDDVLGAVGNLGL,inactive
19,VECHPCSHFDLHNGRIRDNR,inactive
20,VEEGFGLMSKIAHSIGLREC,-0.278 ± 1.4
21,VEFTN,inactive
22,VEGCMIFMVVSLLKHYASYT,inactive
